According to US20210269539A1 (NANJING UMAB BIOPHARMA, published 2021):
Numbering of substitutions follows the chain as printed. Values joined by “and” are separate entries in the source; they are usually repeats but may differ in a detail not shown here. Identical values can stand only once.

Assays:
human OX40 on cells [1] = biological target: T1, human OX40 on cells (human, UniProt P43489 29-277); assay: cell-based or functional assay
T1 sequence (looked up): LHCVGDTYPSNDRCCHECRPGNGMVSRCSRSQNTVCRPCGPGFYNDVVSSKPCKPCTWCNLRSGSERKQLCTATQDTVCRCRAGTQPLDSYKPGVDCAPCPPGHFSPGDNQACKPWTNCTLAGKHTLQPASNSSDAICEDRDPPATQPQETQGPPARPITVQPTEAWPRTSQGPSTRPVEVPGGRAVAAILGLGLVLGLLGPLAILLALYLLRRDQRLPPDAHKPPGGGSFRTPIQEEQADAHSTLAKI

human OX40 on cells [2] = biological target: T1, human OX40 on cells; assay: FACS on CHO-hOX40 cells
Experimental: The OX40 antibody gradient was created with PBS, and a stock solution of 10× final concentration was prepared. CHO-hOX40 cells were collected, washed once with PBS, counted, and diluted to a cell suspension of 2×10⁶ cells/ml. 10 μl of OX40 antibody stock solutions were added into 100 μl of cell suspension, and incubated at 4° C. in the dark for 30 min. After washing twice with PBS, a secondary antibody was added and an incubation was carried out at 4° C. for 30 min in the dark. After washing once with PBS, the cells were suspended in 400 μl FACS buffer and measured on the instrument.

mouse OX40 on CHO cells = biological target: T2, mouse OX40 on CHO cells (mouse, UniProt P47741 20-272); assay: FACS on CHO cells expressing mouse OX40
T2 construct: whole, on cells; also called CHO-mOX40
T2 sequence (looked up): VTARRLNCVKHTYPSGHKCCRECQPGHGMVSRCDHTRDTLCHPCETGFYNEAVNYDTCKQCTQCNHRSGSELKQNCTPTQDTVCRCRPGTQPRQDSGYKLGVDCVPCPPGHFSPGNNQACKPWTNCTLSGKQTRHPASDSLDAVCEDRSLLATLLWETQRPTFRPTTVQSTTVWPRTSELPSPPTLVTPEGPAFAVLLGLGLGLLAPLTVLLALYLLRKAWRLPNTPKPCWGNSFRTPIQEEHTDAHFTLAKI

human OX40 protein [3] = biological target: T3, human OX40 protein (human, UniProt P43489 29-214, limits assumed); assay: ELISA, protein coated at 1 µg/mL, goat anti-human IgG HRP
T3 construct: also called human OX antigen protein
T3 sequence (looked up): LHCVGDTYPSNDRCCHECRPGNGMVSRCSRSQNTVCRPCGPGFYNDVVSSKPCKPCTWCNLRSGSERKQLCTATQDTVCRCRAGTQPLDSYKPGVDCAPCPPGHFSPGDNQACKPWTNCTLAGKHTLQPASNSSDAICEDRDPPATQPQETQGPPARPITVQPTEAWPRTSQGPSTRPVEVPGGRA
Experimental: (§1) The next day, it was washed three times with 300 μL PBST (Tween 20: 0.5‰), then blocked with 5% BSA/PBS at 100 μL/well for 2 hours, and shaken at room temperature. After washing 3 times with 300 μL PBST, the gradient dilutions of samples were prepared with PBS, which were added into the 96-well plate at 100 μL/well and shaken at room temperature for 1 hour, and washed 3 times with 300 μL PBST. The secondary antibody goat anti-human IgG HRP solution was prepared, which was added into the 96-well plate at 100 μL/well, and shaken at room temperature for 1 hour. After washing 4 times with 300 μL PBST, TMB was added at 100 μL/well and developed for 20 min. 0.6N H₂SO4 was added at 100 μL/well to stop the development, and OD450 nm was measured.

human OX40 protein [4] = biological target: T3, human OX40 protein; assay: ELISA as in Example 3, human OX40 protein coated
Experimental: as §1
The in vitro binding assay of humanized antibodies and human OX antigen protein was carried out as described in Example 3.

B1: MT01-L1 (antibody, human IgG1, kappa)
heavy: not shown
light: DIQMTQTTSSLSASLGDRVTISCRASQDISNYLSWYQRKPDGAVKLLIYYTSRLHSGVPSRFSGSGSGADYSLTISNLEQEDIATYFCQQGITLPWTFGGGTKLEIKRTVAAPSVFIFPPSDEQLKSGTASVVCLLNNFYPREAKVQWKVDNALQSGNSQESVTEQDSKDSTYSLSSTLTLSKADYEKHKVYACEVTHQGLSSPVTKSFNRGEC
notes: also called human-mouse chimeric monoclonal antibody MT01-L1
- EC50 for activation of the NFκB-luciferase reporter gene (human OX40 on cells [1]): 0.0391 µg/mL and 0.0574 µg/mL
- IC50 of inhibition of the OX40L-induced activation of NFkB signaling pathway in Jurkat cells (human OX40 on cells [1]): 0.686 µg/mL
- EC50 (human OX40 on cells [2]): 1.22 µg/mL
- binding result (mouse OX40 on CHO cells): no binding
- EC50 (human OX40 protein [3]): 0.291 µg/mL

B2: MT01-L2 (antibody, human IgG1, lambda)
heavy: not shown
light: QLVLTQSSSASFSLGASAKLTCTLSSQHSTYIIEWYQQQPLKPPKYVMELKKDGSHSTGEGIPDRFSGSSSGADRYLSISNIQPEDEAIYICGVGNTIKEQFVYVFGGGTKVTVLGQPKANPTVTLFPPSSEELQANKATLVCLISDFYPGAVTVAWKADGSPVKAGVETTKPSKQSNNKYAASSYLSLTPEQWKSHRSYSCQVTHEGSTVEKTVAPTECS
notes: also called human-mouse chimeric monoclonal antibody MT01-L2
- EC50 for activation of the NFκB-luciferase reporter gene (human OX40 on cells [1]): 0.0841 µg/mL
- IC50 of inhibition of the OX40L-induced activation of NFkB signaling pathway in Jurkat cells (human OX40 on cells [1]): 1.59 µg/mL
- EC50 (human OX40 on cells [2]): 2.42 µg/mL
- binding result (mouse OX40 on CHO cells): no binding
- EC50 (human OX40 protein [3]): 0.208 µg/mL

B3: MT01-C1 (antibody, human IgG1, kappa)
heavy: not shown
light: DIQMTQSPSSVSASVGDRVTITCRASQDISNYLSWYQQKPGGAVKLLIYYTSRLHSGVPSRFSGSGSGTDYTLTISSLQPEDFATYFCQQGITLPWTFGQGTKVEIKRTVAAPSVFIFPPSDEQLKSGTASVVCLLNNFYPREAKVQWKVDNALQSGNSQESVTEQDSKDSTYSLSSTLTLSKADYEKHKVYACEVTHQGLSSPVTKSFNRGEC
notes: also called humanized monoclonal antibody MT01-C1
- EC50 of activation on a cell line transfected stably by Jurkat-OX40-NFκB-luciferase reporter (human OX40 on cells [1]): 0.028 µg/mL
- EC50 (human OX40 protein [4]): 0.345 µg/mL

B4: MT01-C1(G2) (antibody, human IgG2, kappa)
heavy: EVQLVQSGAEVKKPGESLKISCKASGYTFTSYVMHWLRQMPGKGLEWMGYINPYNDGTKYNEKFKGQVTISSDKSISTAYLQWSSLKASDTAMYYCANYYGSKFAMDYWGQGTMVTVSSASTKGPSVFPLAPCSRSTSESTAALGCLVKDYFPEPVTVSWNSGALTSGVHTFPAVLQSSGLYSLSSVVTVPSSNFGTQTYTCNVDHKPSNTKVDKTVERKCCVECPPCPAPPVAGPSVFLFPPKPKDTLMISRTPEVTCVVVDVSHEDPEVQFNWYVDGVEVHNAKTKPREEQFNSTFRVVSVLTVVHQDWLNGKEYKCKVSNKGLPAPIEKTISKTKGQPREPQVYTLPPSREEMTKNQVSLTCLVKGFYPSDIAVEWESNGQPENNYKTTPPMLDSDGSFFLYSKLTVDKSRWQQGNVFSCSVMHEALHNHYTQKSLSLSPGK
light: B3 light
- EC50 of activation on a cell line transfected stably by Jurkat-OX40-NFκB-luciferase reporter (human OX40 on cells [1]): 0.0434 µg/mL
- EC50 (human OX40 protein [4]): 0.39 µg/mL

B5: MT01-L1(G2) (antibody, human IgG2, kappa)
heavy: EVQLQQSGPELVKPGASVKMSCKASGYTFTSYVMHWLKQKPGQGLEWIGYINPYNDGTKYNEKFKGKAKLTSDKSSSTAYMELSSLTSEDSAVYYCANYYGSKFAMDYWGQGTSVTVSSASTKGPSVFPLAPCSRSTSESTAALGCLVKDYFPEPVTVSWNSGALTSGVHTFPAVLQSSGLYSLSSVVTVPSSNFGTQTYTCNVDHKPSNTKVDKTVERKCCVECPPCPAPPVAGPSVFLFPPKPKDTLMISRTPEVTCVVVDVSHEDPEVQFNWYVDGVEVHNAKTKPREEQFNSTFRVVSVLTVVHQDWLNGKEYKCKVSNKGLPAPIEKTISKTKGQPREPQVYTLPPSREEMTKNQVSLTCLVKGFYPSDIAVEWESNGQPENNYKTTPPMLDSDGSFFLYSKLTVDKSRWQQGNVFSCSVMHEALHNHYTQKSLSLSPGK
light: B1 light
- EC50 for activation of the NFκB-luciferase reporter gene (human OX40 on cells [1]): 0.0149 µg/mL

B6: MT01-L2(G2) (antibody, human IgG2, lambda)
heavy: EVQLVESGGGLVQPKGSLSLSCAASGFTFNTYAMNWVRQAPGKGLEWVARIRSKSNNYATYYADSVKDRFTISRDDSQSMLYLQMTNLKTEDTAMYHCVRSLGRAFVYWGQGTLVTVSSASTKGPSVFPLAPCSRSTSESTAALGCLVKDYFPEPVTVSWNSGALTSGVHTFPAVLQSSGLYSLSSVVTVPSSNFGTQTYTCNVDHKPSNTKVDKTVERKCCVECPPCPAPPVAGPSVFLFPPKPKDTLMISRTPEVTCVVVDVSHEDPEVQFNWYVDGVEVHNAKTKPREEQFNSTFRVVSVLTVVHQDWLNGKEYKCKVSNKGLPAPIEKTISKTKGQPREPQVYTLPPSREEMTKNQVSLTCLVKGFYPSDIAVEWESNGQPENNYKTTPPMLDSDGSFFLYSKLTVDKSRWQQGNVFSCSVMHEALHNHYTQKSLSLSPGK
light: B2 light
- EC50 for activation of the NFκB-luciferase reporter gene (human OX40 on cells [1]): 0.118 µg/mL

B7: MT01-L1(M1) (antibody, human IgG1, kappa, V domains shown)
VH: EVQLQQSGPELVKPGASVKMSCKASGYTFTSYVMHWLKQKPGQGLEWIGYINPYNDATKYNEKFKGKAKLTSDKSSSTAYMELSSLTSEDSAVYYCANYYGSKFAMDYWGQGTSVTVSS
VL: DIQMTQTTSSLSASLGDRVTISCRASQDISNYLSWYQRKPDGAVKLLIYYTSRLHSGVPSRFSGSGSGADYSLTISNLEQEDIATYFCQQGITLPWTFGGGTKLEIKR
- EC50 for activation of the NFκB-luciferase reporter gene (human OX40 on cells [1]): 0.0645 µg/mL

B8: MT01-L1(M2) (antibody, human IgG1, kappa, V domains shown)
VH: B7 VH with A57G
VL: B7 VL with W96F
- EC50 for activation of the NFκB-luciferase reporter gene (human OX40 on cells [1]): 0.06 µg/mL

B9: MT01-L1(M1/M2) (antibody, human IgG1, kappa, V domains shown)
VH: B7 VH
VL: B7 VL with W96F
- EC50 for activation of the NFκB-luciferase reporter gene (human OX40 on cells [1]): 0.128 µg/mL
